Laboratory results published in the supplement of paper PMC9170038.

Test system: MS2 coat protein
Experiment: apparent KD of MS2 coat protein; designed switch direction (-1 OFF switch, 1 ON switch): -1; higher = weaker reporter binding
Procedure, shortened: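 The apparent KD reported per design is the median over clusters of curve fits to normalised cluster fluorescence. The RNA switches were transcribed on Illumina chips by stalled E. coli RNA polymerase. SNAP-549-labelled MS2 coat protein was titrated from 0.7 or 1.5 nM, doubling up to 3 µM, in Tris-HCl pH 7.5 buffer containing KCl, MgCl2, BSA, DTT, tRNA and Tween-20, with no input, 200 uM small-molecule ligand, or an oligonucleotide input.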

[1] = input ligand: microRNA oligo, concentration not stated
[2] = Eterna round: R95, input ligand: microRNA oligo, concentration not stated
[3] = Eterna round: R95, input ligand: FMN 200 uM
[4] = Eterna round: R95, input ligand: none

GAAUAGGCAGGAUAUACAUGAGGAUCACCCAUGUGCCGGCGAAAGGUACGUUCGAAAGGUAGAAGGGCCUAAAC [ChP 13.04.2015 #7] (Eterna round: R96, puzzle: Exclusion 3)
apparent KD of MS2 coat protein (input ligand: FMN 200 uM): 176 nM
apparent KD of MS2 coat protein [1]: 36.7 nM
apparent KD of MS2 coat protein (input ligand: none): 41.8 nM

AUUGGGUGAGGAUAUCCAUCUGGAUCAGACUAGAUCCUGAUGGAGAAGGCACAUGAGGAUCACCCAUGUGAGUU [Eli 4x 4.34] (Eterna round: R97, puzzle: Exclusion 4)
apparent KD of MS2 coat protein (input ligand: FMN 200 uM): 108 nM
apparent KD of MS2 coat protein (input ligand: none): 95.6 nM

CGACUGGUAGGAUAUACAUGAGGAUCACCCAUGUACCUGACAUGAGAAUAAACCAUCGGUAGAAGGGCUAAGUC [Eternabot (L2) Solution 79] (Eterna round: R97, puzzle: Exclusion 3)
apparent KD of MS2 coat protein (input ligand: FMN 200 uM): 21.8 nM
apparent KD of MS2 coat protein (input ligand: none): 21.3 nM

UCGCUGCGAGGAUAUACAUGAGGAUCACCCAUGUGCGGGUCCGGGUCUUCGUCCAUUGGUAGAAGGCGCAGUGA [JL Laongeedie mod 6] (puzzle: Exclusion 3)
apparent KD of MS2 coat protein [2]: 43 nM

ACAUGUCAUUGAGGAUAUUGCAAACAUGAGGAUCACCCAUGUAUACGGAUGCUCUUACGUGAGUUCGAGAAGGCGAUGUACAUU [Ex NG2 #91] (Eterna round: R96, puzzle: Exclusion NG 2)
apparent KD of MS2 coat protein (input ligand: FMN 200 uM): 99.7 nM
apparent KD of MS2 coat protein [1]: 39.7 nM
apparent KD of MS2 coat protein (input ligand: none): 46.2 nM

AAGAAACAUGAGGAUCACCCAUGUGAGGAUAUGAAAAAGAAAAGAAAAGAAAGAAGCUUCAGAAGGCACAAAGG [salish99-ex1_r3_030] (puzzle: Exclusion 1)
apparent KD of MS2 coat protein [3]: 38 nM
apparent KD of MS2 coat protein [2]: 27.5 nM
apparent KD of MS2 coat protein [4]: 39.4 nM

GUGUGACAUGAGGAUCACCCAUGUGAGGAUAUCAUGCUUCGUAGUAAACUACGAAGUGUGAGAAGGCACAUAAC [Omei Ex1 E8] (Eterna round: R97, puzzle: Exclusion 1)
apparent KD of MS2 coat protein (input ligand: FMN 200 uM): 678 nM
apparent KD of MS2 coat protein (input ligand: none): 122 nM

GUCCUACAUGAGGAUCACCCAUGUGAGGAUAUGGUUUCGCUGGCCGUAGCCAGUGGAACCAGAAGGCGCAUGAU [Mat - Exclusion 1 - JL Mod - D1] (Eterna round: R97, puzzle: Exclusion 1)
apparent KD of MS2 coat protein (input ligand: FMN 200 uM): 106 nM
apparent KD of MS2 coat protein (input ligand: none): 25.9 nM

UUUUGGCAAGCGAGAUCCUACAUGAGGAUCACCCAUGUUGACCAUGGUUUCCAUGGUCUUUUUGCUCGUCUUGUGUG [jl TITIN mod 3] (Eterna round: R97, puzzle: Sensor, turn-off variant 1)
apparent KD of MS2 coat protein (input ligand: FMN 200 uM): 21.1 nM
apparent KD of MS2 coat protein (input ligand: none): 23.1 nM

UUUCCACAUGAGGAUCACCCAUGUCAGGAUAUUAUAGUUGGCCGAAAGGCGUCAGUGGUAAGAAGGGACGUUGA [Eternabot (L2) Solution 46] (Eterna round: R97, puzzle: Exclusion 1)
apparent KD of MS2 coat protein (input ligand: FMN 200 uM): 16.1 nM
apparent KD of MS2 coat protein (input ligand: none): 15.8 nM

UCAUGUAUGUAGGAUAUCGAUGUCUGCGGACAUCGAGAAGGACGUACAUGAGGAUCACCCAUGUAACUUGCAUG [Exclusion 6 - B - 11:e] (puzzle: Exclusion 6)
apparent KD of MS2 coat protein [3]: 31.9 nM
apparent KD of MS2 coat protein [2]: 17.8 nM
apparent KD of MS2 coat protein [4]: 13.1 nM

GGUAGCUGAGGAUAUGCAGACGACCCUCAGUGCUGGCUUGCACAUGAGGAUCACCCAUGUAGAAGGCAGAAGCU [Eternabot (L2) Solution 5] (Eterna round: R97, puzzle: Exclusion 2)
apparent KD of MS2 coat protein (input ligand: FMN 200 uM): 56 nM
apparent KD of MS2 coat protein (input ligand: none): 57.5 nM

UCUAGACAUGAGGAUCACCCAUGUGAGGAUAUGAUGCGAUCGUCGAAAGACGAUAGCAUCAGAAGGCACAUAUG [Fiskers Ex 1 - 4] (puzzle: Exclusion 1)
apparent KD of MS2 coat protein [2]: 117 nM

CUUUUGUGAGGAUAUCAUUAGUAAAAAAAUAAAAUUACUACUGAGAAGGCACAUGAGGAUCACCCAUGUUCCUC [salish99_ex4_r3_034] (puzzle: Exclusion 4)
apparent KD of MS2 coat protein [2]: 37.6 nM

UCUUUAGGUGUUAGGAUAUACCUGCGCAAAGUUAGGUAGAAGGGACAUGAGGAUCACCCAUGUGCGUCCACAAU [Eternabot (L1) Solution 29] (Eterna round: R97, puzzle: Brourd's mod of Exclusion 4)
apparent KD of MS2 coat protein (input ligand: FMN 200 uM): 30.4 nM
apparent KD of MS2 coat protein (input ligand: none): 27.5 nM

AAACUCCUGACAACCAGGAACAUGAGGAUCACCCAUGUGGCGUGACUCAUACGGGCUUUUUGUUCGUUUUAUUCACG [Aleatxe] (puzzle: Sensor v3, turn-off variant 1)
apparent KD of MS2 coat protein [3]: 41 nM
apparent KD of MS2 coat protein [2]: 26.6 nM
apparent KD of MS2 coat protein [4]: 51 nM

GCGCACCUACCAAAAGGUAGGUCAACAUGAGGAUCACCCAUGUAGGAUAUCGAUUGCUUUGCAGUCGAGAAGGACAUGAUGCGC [JL ENG3 3.80 Mod 13] (Eterna round: R96, puzzle: Exclusion NG 3)
apparent KD of MS2 coat protein (input ligand: FMN 200 uM): 111 nM
apparent KD of MS2 coat protein [1]: 36.3 nM
apparent KD of MS2 coat protein (input ligand: none): 36.7 nM

GUGAGCAGACGGAGAUCCAACAUGAGGAUCACCCAUGUCUCAUAAGCUUUUUGCUCAUCUUAUUGUACCUUGGUGCU [Mat - Sensor v3 - turn-off var 1 - JL Mod - D20] (puzzle: Sensor v3, turn-off variant 1)
apparent KD of MS2 coat protein [3]: 291 nM
apparent KD of MS2 coat protein [2]: 8.27 nM
apparent KD of MS2 coat protein [4]: 253 nM

CAGUACUGAGGAUAUACAUGAGGAUCACCCAUGUGUUCCAGCUAGGAAACUAGCAAAAGUAGAAGGCAGUUCUG [salish99_ex3_r3_099x] (puzzle: Exclusion 3)
apparent KD of MS2 coat protein [2]: 19.3 nM

AAGCCCUGAGGAUAUCCUUACUCGCACAUGAGGAUCACCCAUGUCCUCCUCCGGGCUUCGGGAGAAGGCAGGUCUC [Megrez-7.7] (Eterna round: R97, puzzle: Exclusion 5)
apparent KD of MS2 coat protein (input ligand: FMN 200 uM): 40.1 nM
apparent KD of MS2 coat protein (input ligand: none): 56.6 nM

CGUACUGAAGUGAGGAUAUUGUCUCGGAUACGAAACAAGAAGGCACAUGAGGAUCACCCAUGUUGACAGUACGA [Malc #30 mod 7] (puzzle: Brourd's mod of Exclusion 4)
apparent KD of MS2 coat protein [2]: 15 nM

AUAUUGUGAGGAUAUGAAGUUAGUAUCGAAAGAUACUAAGUUCAGAAGGCACAUGAGGAUCACCCAUGUUUCUC [Long static hairpin v4] (Eterna round: R97, puzzle: Exclusion 4)
apparent KD of MS2 coat protein (input ligand: FMN 200 uM): 710 nM
apparent KD of MS2 coat protein (input ligand: none): 71.5 nM

CAGUGCUGACGGAGAUCCAACAUGAGGAUCACCCAUGUCUCAAAAGCUUUUUGCUCGUCUUAUCCUCCUCAGUACUC [Mat - Sensor, turn-off var - Eli Mod - D57] (Eterna round: R97, puzzle: Sensor, turn-off variant 1)
apparent KD of MS2 coat protein (input ligand: FMN 200 uM): 14.6 nM
apparent KD of MS2 coat protein (input ligand: none): 19.2 nM

AGUCGGCGAGGAUAUACAUGAGGAUCACCCAUGUGAGAUAGUGCACGCGUACGUGUACGUAGAAGGCGCUGACA [Mat - Exclusion 3 - Mod of JL D94] (puzzle: Exclusion 3)
apparent KD of MS2 coat protein [2]: 11.1 nM

CUCGUGUUAGGAUAUCUAUCGCGGAUGACAGAGAGGACGUUGGAGAAGGAACAUGAGGAUCACCCAUGUUCUGG [Eternabot (L2) Solution 86] (Eterna round: R97, puzzle: Exclusion 4)
apparent KD of MS2 coat protein (input ligand: FMN 200 uM): 18.8 nM
apparent KD of MS2 coat protein (input ligand: none): 14.5 nM

CCGGAAAUGAAGGAUAUAGGUGUCGAUAGACACCUAGAAGGUCAUACAUGAGGAUCACCCAUGUGUCCUACCGG [Fiskers Ex 6 - 7] (puzzle: Exclusion 6)
apparent KD of MS2 coat protein [2]: 13.9 nM

GUGUGACAUGAGGAUCACCCAUGUGAGGAUAUUUAUGUUUGGUUGUUUAGUUGGGCGUGGAGAAGGCGCGUGCG [19% As] (Eterna round: R97, puzzle: Exclusion 1)
apparent KD of MS2 coat protein (input ligand: FMN 200 uM): 65.6 nM
apparent KD of MS2 coat protein (input ligand: none): 85.1 nM

AAUAACAAGCUGAUCCUAAACAUGAGGAUCACCCAUGUGUUCGUCUUGUAAAGUACUAUCACGAAAGUGAUAGUACA (Eterna round: R97, puzzle: Sensor, turn-off variant 1)
apparent KD of MS2 coat protein (input ligand: FMN 200 uM): 75.2 nM
apparent KD of MS2 coat protein (input ligand: none): 80 nM

AGUAACUAUCACGAAAGUGAUAGUUACACAAGCAGUGACACAUGAGGAUCACCCAUGUCCUCAUUUGCUCGUCUUAU [Sensor 3 - 29] (puzzle: Sensor v3, turn-off variant 2)
apparent KD of MS2 coat protein [3]: 614 nM
apparent KD of MS2 coat protein [2]: 637 nM
apparent KD of MS2 coat protein [4]: 478 nM

ACCUCACAUGAGGAUCACCCAUGUCAGGAUAUACAAGAAAAUAACCGGAAAGAACGGAGUAGAAGGGACAUAAG [Zatigeri] (puzzle: Exclusion 1)
apparent KD of MS2 coat protein [3]: 28.1 nM
apparent KD of MS2 coat protein [2]: 15.3 nM
apparent KD of MS2 coat protein [4]: 15.8 nM

CCAAGCUGUGUGAGGAUAUGCUGGUCCUUGGAUCAGCAGAAGGCACAUGAGGAUCACCCAUGUGAAAAGCUUGG [Mat - Exclusion 4 - JL Mod - D92] (puzzle: Brourd's mod of Exclusion 4)
apparent KD of MS2 coat protein [2]: 13.8 nM

GAGUACUGAGGAUAUACAUGAGGAUCACCCAUGUGUUCCAACUAGGAAUCUAGAGUAUGUAGAAGGCAGUGCUG [salish99_ex3_r4_704] (Eterna round: R97, puzzle: Exclusion 3)
apparent KD of MS2 coat protein (input ligand: FMN 200 uM): 145 nM
apparent KD of MS2 coat protein (input ligand: none): 130 nM

AACCCGAUAGGAUAUACUUGAGGAUCACCCAAGUACGCCUGCAAUGCAAGCGCCUGAAGUAGAAGGAUCAAAAG [Gexetele] (Eterna round: R97, puzzle: Exclusion 3)
apparent KD of MS2 coat protein (input ligand: FMN 200 uM): 21 nM
apparent KD of MS2 coat protein (input ligand: none): 31.1 nM

GCAGCAAUCUCAAUUAAAACCACAUGAGGAUCACCCAUGUCUCAGGAUAUGGUCUGGAUUACAGGCCAGAAGGGAGAAAGCUGC [Eli exng3 - 053] (Eterna round: R96, puzzle: Exclusion NG 3)
apparent KD of MS2 coat protein (input ligand: FMN 200 uM): 13.5 nM
apparent KD of MS2 coat protein [1]: 10.2 nM
apparent KD of MS2 coat protein (input ligand: none): 13 nM

AACAGUCUAGAGGAUAUGUGGGAUUAAUAUCUUGCAGAAGGCUGGACAUGAGGAUCACCCAUGUAAAUACUACC [Omei Ex6 A15] (Eterna round: R97, puzzle: Exclusion 6)
apparent KD of MS2 coat protein (input ligand: FMN 200 uM): 80.8 nM
apparent KD of MS2 coat protein (input ligand: none): 32.9 nM
